{
  "source": "the RNAGym collection of RNA variant scans (doi:10.1021/acssynbio.7b00057)",
  "parents": {"B1": {"name": "Pistol ribozyme (parent)", "chain": "GGGUCGUUGUUCCAUAAUCGCGUGGAUAUGGCACGCAAGUUUCUACCGGGCACCGUAAAUGUCCGACUGGAGCCGUUCGGGCGGCUAUAAACAGACCUCAGGCCCGAAGCGUGGCGGCACCUGCCGCCGGUGGUAAAAAAGAUCGGAAGAGCACACGUCU"}},
  "data": [
    {"variants_of": "B1", "assay": "aptazyme ON/OFF ratio, guanine; higher = stronger switching; co-transcriptional cleavage with and without guanine", "values": [
      {"variant": "GGGUCGUAUGGAAAUAAUCGCGUGGAUAUGGCACGCAAGUUUCUACCGGGCACCGUAAAUGUCCGACUGGAGCCGUUCGGGCGGCUAUAAACAGACCUCAGGCCCGAAGCGUGGCGGCACCUGCCGCCGGUGGUAAAAAAGAUCGGAAGAGCACACGUCU", "aptazyme ON/OFF ratio": 1.16},
      {"variant": "GGGUCGCACUGCAAUAAUCGCGUGGAUAUGGCACGCAAGUUUCUACCGGGCACCGUAAAUGUCCGACUGGAGCCGUUCGGGCGGCUAUAAACAGACCUCAGGCCCGAAGCGUGGCGGCACCUGCCGCCGGUGGUAAAAAAGAUCGGAAGAGCACACGUCU", "aptazyme ON/OFF ratio": 1.07},
      {"variant": "GGGUCGCGAUGUGAUAAUCGCGUGGAUAUGGCACGCAAGUUUCUACCGGGCACCGUAAAUGUCCGACUGGAGCCGUUCGGGCGGCUAUAAACAGACCUCAGGCCCGAAGCGUGGCGGCACCUGCCGCCGGUGGUAAAAAAGAUCGGAAGAGCACACGUCU", "aptazyme ON/OFF ratio": 1.29},
      {"variant": "GGGUCGACCUGGUAUAAUCGCGUGGAUAUGGCACGCAAGUUUCUACCGGGCACCGUAAAUGUCCGACUGGAGCCGUUCGGGCGGCUAUAAACAGACCUCAGGCCCGAAGCGUGGCGGCACCUGCCGCCGGUGGUAAAAAAGAUCGGAAGAGCACACGUCU", "aptazyme ON/OFF ratio": 1.11},
      {"variant": "GGGUCGGGCAGCAAUAAUCGCGUGGAUAUGGCACGCAAGUUUCUACCGGGCACCGUAAAUGUCCGACUGGAGCCGUUCGGGCGGCUAUAAACAGACCUCAGGCCCGAAGCGUGGCGGCACCUGCCGCCGGUGGUAAAAAAGAUCGGAAGAGCACACGUCU", "aptazyme ON/OFF ratio": 1.08},
      {"variant": "GGGUCGCCUACUAAUAAUCGCGUGGAUAUGGCACGCAAGUUUCUACCGGGCACCGUAAAUGUCCGACUGGAGCCGUUCGGGCGGCUAUAAACAGACCUCAGGCCCGAAGCGUGGCGGCACCUGCCGCCGGUGGUAAAAAAGAUCGGAAGAGCACACGUCU", "aptazyme ON/OFF ratio": 1.16},
      {"variant": "GGGUCGUGUCCCAAUAAUCGCGUGGAUAUGGCACGCAAGUUUCUACCGGGCACCGUAAAUGUCCGACUGGAGCCGUUCGGGCGGCUAUAAACAGACCUCAGGCCCGAAGCGUGGCGGCACCUGCCGCCGGUGGUAAAAAAGAUCGGAAGAGCACACGUCU", "aptazyme ON/OFF ratio": 1.04},
      {"variant": "GGGUCGCAAGCUCAUAAUCGCGUGGAUAUGGCACGCAAGUUUCUACCGGGCACCGUAAAUGUCCGACUGGAGCCGUUCGGGCGGCUAUAAACAGACCUCAGGCCCGAAGCGUGGCGGCACCUGCCGCCGGUGGUAAAAAAGAUCGGAAGAGCACACGUCU", "aptazyme ON/OFF ratio": 1.07},
      {"variant": "GGGUCGCUACGAUAUAAUCGCGUGGAUAUGGCACGCAAGUUUCUACCGGGCACCGUAAAUGUCCGACUGGAGCCGUUCGGGCGGCUAUAAACAGACCUCAGGCCCGAAGCGUGGCGGCACCUGCCGCCGGUGGUAAAAAAGAUCGGAAGAGCACACGUCU", "aptazyme ON/OFF ratio": 1.08},
      {"variant": "GGGUCGAAUAGUGAUAAUCGCGUGGAUAUGGCACGCAAGUUUCUACCGGGCACCGUAAAUGUCCGACUGGAGCCGUUCGGGCGGCUAUAAACAGACCUCAGGCCCGAAGCGUGGCGGCACCUGCCGCCGGUGGUAAAAAAGAUCGGAAGAGCACACGUCU", "aptazyme ON/OFF ratio": 1.15},
      {"variant": "GGGUCGGUUCAAUAUAAUCGCGUGGAUAUGGCACGCAAGUUUCUACCGGGCACCGUAAAUGUCCGACUGGAGCCGUUCGGGCGGCUAUAAACAGACCUCAGGCCCGAAGCGUGGCGGCACCUGCCGCCGGUGGUAAAAAAGAUCGGAAGAGCACACGUCU", "aptazyme ON/OFF ratio": 1.36},
      {"variant": "GGGUCGGUCGACUAUAAUCGCGUGGAUAUGGCACGCAAGUUUCUACCGGGCACCGUAAAUGUCCGACUGGAGCCGUUCGGGCGGCUAUAAACAGACCUCAGGCCCGAAGCGUGGCGGCACCUGCCGCCGGUGGUAAAAAAGAUCGGAAGAGCACACGUCU", "aptazyme ON/OFF ratio": 1.24},
      {"variant": "GGGUCGUGCGAGUAUAAUCGCGUGGAUAUGGCACGCAAGUUUCUACCGGGCACCGUAAAUGUCCGACUGGAGCCGUUCGGGCGGCUAUAAACAGACCUCAGGCCCGAAGCGUGGCGGCACCUGCCGCCGGUGGUAAAAAAGAUCGGAAGAGCACACGUCU", "aptazyme ON/OFF ratio": 1.2},
      {"variant": "GGGUCGAUAUAACAUAAUCGCGUGGAUAUGGCACGCAAGUUUCUACCGGGCACCGUAAAUGUCCGACUGGAGCCGUUCGGGCGGCUAUAAACAGACCUCAGGCCCGAAGCGUGGCGGCACCUGCCGCCGGUGGUAAAAAAGAUCGGAAGAGCACACGUCU", "aptazyme ON/OFF ratio": 1.34},
      {"variant": "GGGUCGACACGGAAUAAUCGCGUGGAUAUGGCACGCAAGUUUCUACCGGGCACCGUAAAUGUCCGACUGGAGCCGUUCGGGCGGCUAUAAACAGACCUCAGGCCCGAAGCGUGGCGGCACCUGCCGCCGGUGGUAAAAAAGAUCGGAAGAGCACACGUCU", "aptazyme ON/OFF ratio": 1.23},
      {"variant": "GGGUCGUGGGCUUAUAAUCGCGUGGAUAUGGCACGCAAGUUUCUACCGGGCACCGUAAAUGUCCGACUGGAGCCGUUCGGGCGGCUAUAAACAGACCUCAGGCCCGAAGCGUGGCGGCACCUGCCGCCGGUGGUAAAAAAGAUCGGAAGAGCACACGUCU", "aptazyme ON/OFF ratio": 1.04},
      {"variant": "GGGUCGGAAUACUAUAAUCGCGUGGAUAUGGCACGCAAGUUUCUACCGGGCACCGUAAAUGUCCGACUGGAGCCGUUCGGGCGGCUAUAAACAGACCUCAGGCCCGAAGCGUGGCGGCACCUGCCGCCGGUGGUAAAAAAGAUCGGAAGAGCACACGUCU", "aptazyme ON/OFF ratio": 1.12},
      {"variant": "GGGUCGAUCUAUGAUAAUCGCGUGGAUAUGGCACGCAAGUUUCUACCGGGCACCGUAAAUGUCCGACUGGAGCCGUUCGGGCGGCUAUAAACAGACCUCAGGCCCGAAGCGUGGCGGCACCUGCCGCCGGUGGUAAAAAAGAUCGGAAGAGCACACGUCU", "aptazyme ON/OFF ratio": 1.07},
      {"variant": "GGGUCGAGCCGAGAUAAUCGCGUGGAUAUGGCACGCAAGUUUCUACCGGGCACCGUAAAUGUCCGACUGGAGCCGUUCGGGCGGCUAUAAACAGACCUCAGGCCCGAAGCGUGGCGGCACCUGCCGCCGGUGGUAAAAAAGAUCGGAAGAGCACACGUCU", "aptazyme ON/OFF ratio": 1.15},
      {"variant": "GGGUCGAAAGAUCAUAAUCGCGUGGAUAUGGCACGCAAGUUUCUACCGGGCACCGUAAAUGUCCGACUGGAGCCGUUCGGGCGGCUAUAAACAGACCUCAGGCCCGAAGCGUGGCGGCACCUGCCGCCGGUGGUAAAAAAGAUCGGAAGAGCACACGUCU", "aptazyme ON/OFF ratio": 1.03},
      {"variant": "GGGUCGCUGUUCGAUAAUCGCGUGGAUAUGGCACGCAAGUUUCUACCGGGCACCGUAAAUGUCCGACUGGAGCCGUUCGGGCGGCUAUAAACAGACCUCAGGCCCGAAGCGUGGCGGCACCUGCCGCCGGUGGUAAAAAAGAUCGGAAGAGCACACGUCU", "aptazyme ON/OFF ratio": 1.05},
      {"variant": "GGGUCGCAUUGUCAUAAUCGCGUGGAUAUGGCACGCAAGUUUCUACCGGGCACCGUAAAUGUCCGACUGGAGCCGUUCGGGCGGCUAUAAACAGACCUCAGGCCCGAAGCGUGGCGGCACCUGCCGCCGGUGGUAAAAAAGAUCGGAAGAGCACACGUCU", "aptazyme ON/OFF ratio": 1.4},
      {"variant": "GGGUCGCUAGGGCAUAAUCGCGUGGAUAUGGCACGCAAGUUUCUACCGGGCACCGUAAAUGUCCGACUGGAGCCGUUCGGGCGGCUAUAAACAGACCUCAGGCCCGAAGCGUGGCGGCACCUGCCGCCGGUGGUAAAAAAGAUCGGAAGAGCACACGUCU", "aptazyme ON/OFF ratio": 1.23},
      {"variant": "GGGUCGUGCAAACAUAAUCGCGUGGAUAUGGCACGCAAGUUUCUACCGGGCACCGUAAAUGUCCGACUGGAGCCGUUCGGGCGGCUAUAAACAGACCUCAGGCCCGAAGCGUGGCGGCACCUGCCGCCGGUGGUAAAAAAGAUCGGAAGAGCACACGUCU", "aptazyme ON/OFF ratio": 1.18},
      {"variant": "GGGUCGCGGUAAUAUAAUCGCGUGGAUAUGGCACGCAAGUUUCUACCGGGCACCGUAAAUGUCCGACUGGAGCCGUUCGGGCGGCUAUAAACAGACCUCAGGCCCGAAGCGUGGCGGCACCUGCCGCCGGUGGUAAAAAAGAUCGGAAGAGCACACGUCU", "aptazyme ON/OFF ratio": 1.13},
      {"variant": "GGGUCGGUAAAGCAUAAUCGCGUGGAUAUGGCACGCAAGUUUCUACCGGGCACCGUAAAUGUCCGACUGGAGCCGUUCGGGCGGCUAUAAACAGACCUCAGGCCCGAAGCGUGGCGGCACCUGCCGCCGGUGGUAAAAAAGAUCGGAAGAGCACACGUCU", "aptazyme ON/OFF ratio": 1.2},
      {"variant": "GGGUCGGCCAAGCAUAAUCGCGUGGAUAUGGCACGCAAGUUUCUACCGGGCACCGUAAAUGUCCGACUGGAGCCGUUCGGGCGGCUAUAAACAGACCUCAGGCCCGAAGCGUGGCGGCACCUGCCGCCGGUGGUAAAAAAGAUCGGAAGAGCACACGUCU", "aptazyme ON/OFF ratio": 1.19},
      {"variant": "GGGUCGCAUGCGCAUAAUCGCGUGGAUAUGGCACGCAAGUUUCUACCGGGCACCGUAAAUGUCCGACUGGAGCCGUUCGGGCGGCUAUAAACAGACCUCAGGCCCGAAGCGUGGCGGCACCUGCCGCCGGUGGUAAAAAAGAUCGGAAGAGCACACGUCU", "aptazyme ON/OFF ratio": 1.26},
      {"variant": "GGGUCGACCACAGAUAAUCGCGUGGAUAUGGCACGCAAGUUUCUACCGGGCACCGUAAAUGUCCGACUGGAGCCGUUCGGGCGGCUAUAAACAGACCUCAGGCCCGAAGCGUGGCGGCACCUGCCGCCGGUGGUAAAAAAGAUCGGAAGAGCACACGUCU", "aptazyme ON/OFF ratio": 1.16},
      {"variant": "GGGUCGCUGCAAGAUAAUCGCGUGGAUAUGGCACGCAAGUUUCUACCGGGCACCGUAAAUGUCCGACUGGAGCCGUUCGGGCGGCUAUAAACAGACCUCAGGCCCGAAGCGUGGCGGCACCUGCCGCCGGUGGUAAAAAAGAUCGGAAGAGCACACGUCU", "aptazyme ON/OFF ratio": 1.26},
      {"variant": "GGGUCGCCUUGGUAUAAUCGCGUGGAUAUGGCACGCAAGUUUCUACCGGGCACCGUAAAUGUCCGACUGGAGCCGUUCGGGCGGCUAUAAACAGACCUCAGGCCCGAAGCGUGGCGGCACCUGCCGCCGGUGGUAAAAAAGAUCGGAAGAGCACACGUCU", "aptazyme ON/OFF ratio": 1.05},
      {"variant": "GGGUCGAAAAAGUAUAAUCGCGUGGAUAUGGCACGCAAGUUUCUACCGGGCACCGUAAAUGUCCGACUGGAGCCGUUCGGGCGGCUAUAAACAGACCUCAGGCCCGAAGCGUGGCGGCACCUGCCGCCGGUGGUAAAAAAGAUCGGAAGAGCACACGUCU", "aptazyme ON/OFF ratio": 1.13},
      {"variant": "GGGUCGACGCCGUAUAAUCGCGUGGAUAUGGCACGCAAGUUUCUACCGGGCACCGUAAAUGUCCGACUGGAGCCGUUCGGGCGGCUAUAAACAGACCUCAGGCCCGAAGCGUGGCGGCACCUGCCGCCGGUGGUAAAAAAGAUCGGAAGAGCACACGUCU", "aptazyme ON/OFF ratio": 1.09},
      {"variant": "GGGUCGAGCUGUAAUAAUCGCGUGGAUAUGGCACGCAAGUUUCUACCGGGCACCGUAAAUGUCCGACUGGAGCCGUUCGGGCGGCUAUAAACAGACCUCAGGCCCGAAGCGUGGCGGCACCUGCCGCCGGUGGUAAAAAAGAUCGGAAGAGCACACGUCU", "aptazyme ON/OFF ratio": 1.44},
      {"variant": "GGGUCGACCCAUGAUAAUCGCGUGGAUAUGGCACGCAAGUUUCUACCGGGCACCGUAAAUGUCCGACUGGAGCCGUUCGGGCGGCUAUAAACAGACCUCAGGCCCGAAGCGUGGCGGCACCUGCCGCCGGUGGUAAAAAAGAUCGGAAGAGCACACGUCU", "aptazyme ON/OFF ratio": 1.01},
      {"variant": "GGGUCGCUUCGUAAUAAUCGCGUGGAUAUGGCACGCAAGUUUCUACCGGGCACCGUAAAUGUCCGACUGGAGCCGUUCGGGCGGCUAUAAACAGACCUCAGGCCCGAAGCGUGGCGGCACCUGCCGCCGGUGGUAAAAAAGAUCGGAAGAGCACACGUCU", "aptazyme ON/OFF ratio": 1.14}
    ]}
  ]
}
